Results as given in publication PMC4661536, “Structural delineation of stem-loop RNA binding by human TAF15 protein”.

Columns and labels:
Settings in all cases: protein: recombinant; hairpin, 8 bp stem, 9 nt loop
TAF15-RRM = TAF15-RRM (Homo sapiens, UniProt Q92804 231-323); assay: ITC; N = 0.72; ITC: 10 mM HEPES pH 7.0, 20 mM Na2SO4 (+5 mM beta-mercaptoethanol for RRM-RanBP2 constructs), 298 K, 1 mM RNA into 100 uM protein. NMR: 20 mM Na phosphate pH 6.2, 25 mM NaCl, 5% D2O (RRM) or 25 mM Na2SO4, 5 mM beta-mercaptoethanol (TAF15-RRM-RanBP2), 298 K
Sequence of TAF15-RRM (Q92804 231-323): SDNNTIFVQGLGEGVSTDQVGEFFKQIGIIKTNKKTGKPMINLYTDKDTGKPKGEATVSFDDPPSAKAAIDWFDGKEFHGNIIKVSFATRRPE

FUS-RRM [1] = target: T1, FUS-RRM (Homo sapiens, UniProt P35637 282-374); assay: ITC; sequential site N1; ITC: 10 mM HEPES pH 7.0, 20 mM Na2SO4 (+5 mM beta-mercaptoethanol for RRM-RanBP2 constructs), 298 K, 1 mM RNA into 100 uM protein. NMR: 20 mM Na phosphate pH 6.2, 25 mM NaCl, 5% D2O (RRM) or 25 mM Na2SO4, 5 mM beta-mercaptoethanol (TAF15-RRM-RanBP2), 298 K
T1 sequence (P35637 282-374): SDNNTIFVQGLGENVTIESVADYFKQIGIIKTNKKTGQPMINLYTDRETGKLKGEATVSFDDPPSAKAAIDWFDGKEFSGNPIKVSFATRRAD

FUS-RRM [2] = target: T1, FUS-RRM; assay: ITC; sequential site N2; ITC: 10 mM HEPES pH 7.0, 20 mM Na2SO4 (+5 mM beta-mercaptoethanol for RRM-RanBP2 constructs), 298 K, 1 mM RNA into 100 uM protein. NMR: 20 mM Na phosphate pH 6.2, 25 mM NaCl, 5% D2O (RRM) or 25 mM Na2SO4, 5 mM beta-mercaptoethanol (TAF15-RRM-RanBP2), 298 K
FUS-RRM [3] = target: T1, FUS-RRM; assay: ITC; sequential site N3; ITC: 10 mM HEPES pH 7.0, 20 mM Na2SO4 (+5 mM beta-mercaptoethanol for RRM-RanBP2 constructs), 298 K, 1 mM RNA into 100 uM protein. NMR: 20 mM Na phosphate pH 6.2, 25 mM NaCl, 5% D2O (RRM) or 25 mM Na2SO4, 5 mM beta-mercaptoethanol (TAF15-RRM-RanBP2), 298 K
FUS-RRM-RanBP2 = FUS-RRM-RanBP2 (Homo sapiens, UniProt P35637 282-454); assay: ITC; N = 0.7; 5 mM beta-mercaptoethanol; ITC: 10 mM HEPES pH 7.0, 20 mM Na2SO4 (+5 mM beta-mercaptoethanol for RRM-RanBP2 constructs), 298 K, 1 mM RNA into 100 uM protein. NMR: 20 mM Na phosphate pH 6.2, 25 mM NaCl, 5% D2O (RRM) or 25 mM Na2SO4, 5 mM beta-mercaptoethanol (TAF15-RRM-RanBP2), 298 K
Sequence of FUS-RRM-RanBP2 (P35637 282-454): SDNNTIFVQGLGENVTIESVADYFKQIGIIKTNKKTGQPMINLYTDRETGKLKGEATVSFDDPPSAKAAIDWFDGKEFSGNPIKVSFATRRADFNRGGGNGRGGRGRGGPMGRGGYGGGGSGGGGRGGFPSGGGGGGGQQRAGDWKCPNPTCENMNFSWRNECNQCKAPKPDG

TAF15-RRM-RanBP2 = TAF15-RRM-RanBP2 (Homo sapiens, UniProt Q92804 231-388); assay: ITC; N = 0.8; 5 mM beta-mercaptoethanol; ITC: 10 mM HEPES pH 7.0, 20 mM Na2SO4 (+5 mM beta-mercaptoethanol for RRM-RanBP2 constructs), 298 K, 1 mM RNA into 100 uM protein. NMR: 20 mM Na phosphate pH 6.2, 25 mM NaCl, 5% D2O (RRM) or 25 mM Na2SO4, 5 mM beta-mercaptoethanol (TAF15-RRM-RanBP2), 298 K
Sequence of TAF15-RRM-RanBP2 (Q92804 231-388): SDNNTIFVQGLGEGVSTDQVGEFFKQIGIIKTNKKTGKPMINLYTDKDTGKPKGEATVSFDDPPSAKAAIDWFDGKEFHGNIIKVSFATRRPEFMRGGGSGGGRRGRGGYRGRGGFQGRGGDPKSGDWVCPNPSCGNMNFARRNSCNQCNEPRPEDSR

FUS-RRM [4] = target: T1, FUS-RRM; assay: ITC; average over three sequential sites; ITC: 10 mM HEPES pH 7.0, 20 mM Na2SO4 (+5 mM beta-mercaptoethanol for RRM-RanBP2 constructs), 298 K, 1 mM RNA into 100 uM protein. NMR: 20 mM Na phosphate pH 6.2, 25 mM NaCl, 5% D2O (RRM) or 25 mM Na2SO4, 5 mM beta-mercaptoethanol (TAF15-RRM-RanBP2), 298 K

Binder: CGUAUCUUUAACUACUCAAGAUACG (structured_RNA) [SON stem-loop RNA]
- Kd (TAF15-RRM): 10 ± 1 µM
- Kd (FUS-RRM [1]): 10 ± 1 µM
- Kd (FUS-RRM [2]): 13 ± 1.6 µM
- Kd (FUS-RRM [3]): 12 ± 0.3 µM
- Kd (FUS-RRM-RanBP2): 8 ± 0.7 µM
- Kd (TAF15-RRM-RanBP2): 6 ± 0.7 µM
- Kd (FUS-RRM [4]): 11 µM
